Results: patent publication US5442053A, “Salts and mixtures of hyaluronic acid with pharmaceutically active substances, pharmaceutical compositions containing the same and methods for administration of such compositions” (Fidia, S.p.A., priority 1983, dated 1995)

System: corneal epithelium
Assay: Healing activity of EGF vehicled in hyaluronic acid, epithelial lesion of rabbit cornea
Assay type: in vivo, rabbit (male albino New Zealand)
Settings: for healing of lesions in the corneal epithelium: single eye
Protocol: The experiments were carried out on male albino New Zealand rabbits (average weight 1.8 kg). The animals, after a period of adaptation of about 5 days, underwent epithelial lesion of the cornea in suitable conditions of local anesthetic with Novesina (4%). The lesion consisted of a monocular scarification of a circular area in the optic zone effected by a concave glass cylinder (.phi. 3mm) with a sharp edge.
The animals were subdivided into groups, each group consisting of 5 animals, and subjected to pharmacological treatment by conjunctival instillation as follows:
Treatment was effected on the right eye (RE) by conjunctival instillation of 2 drops every 8 hours for 3 total administrations.
Healing of the corneal epithelium was evaluated by observation of the eye and photographic documentation with a slit lamp at various intervals after scarification: 0, 8 hours, 16 hours, 24 hours, 32 hours, 40 hours, and 48 hours.

B1: Epidermal growth factor (protein, UniProt P01133 23-1207, looked up)
Pro-epidermal growth factor: PQHWSCPEGTLAGNGNSTCVGPAPFLIFSHGNSIFRIDTEGTNYEQLVVDAGVSVIMDFHYNEKRIYWVDLERQLLQRVFLNGSRQERVCNIEKNVSGMAINWINEEVIWSNQQEGIITVTDMKGNNSHILLSALKYPANVAVDPVERFIFWSSEVAGSLYRADLDGVGVKALLETSEKITAVSLDVLDKRLFWIQYNREGSNSLICSCDYDGGSVHISKHPTQHNLFAMSLFGDRIFYSTWKMKTIWIANKHTGKDMVRINLHSSFVPLGELKVVHPLAQPKAEDDTWEPEQKLCKLRKGNCSSTVCGQDLQSHLCMCAEGYALSRDRKYCEDVNECAFWNHGCTLGCKNTPGSYYCTCPVGFVLLPDGKRCHQLVSCPRNVSECSHDCVLTSEGPLCFCPEGSVLERDGKTCSGCSSPDNGGCSQLCVPLSPVSWECDCFPGYDLQLDEKSCAASGPQPFLLFANSQDIRHMHFDGTDYGTLLSQQMGMVYALDHDPVENKIYFAHTALKWIERANMDGSQRERLIEEGVDVPEGLAVDWIGRRFYWTDRGKSLIGRSDLNGKRSKIITKENISQPRGIAVHPMAKRLFWTDTGINPRIESSSLQGLGRLVIASSDLIWPSGITIDFLTDKLYWCDAKQSVIEMANLDGSKRRRLTQNDVGHPFAVAVFEDYVWFSDWAMPSVMRVNKRTGKDRVRLQGSMLKPSSLVVVHPLAKPGADPCLYQNGGCEHICKKRLGTAWCSCREGFMKASDGKTCLALDGHQLLAGGEVDLKNQVTPLDILSKTRVSEDNITESQHMLVAEIMVSDQDDCAPVGCSMYARCISEGEDATCQCLKGFAGDGKLCSDIDECEMGVPVCPPASSKCINTEGGYVCRCSEGYQGDGIHCLDIDECQLGEHSCGENASCTNTEGGYTCMCAGRLSEPGLICPDSTPPPHLREDDHHYSVRNSDSECPLSHDGYCLHDGVCMYIEALDKYACNCVVGYIGERCQYRDLKWWELRHAGHGQQQKVIVVAVCVVVLVMLLLLSLWGAHYYRTQKLLSKNPKNPYEESSRDVRSRRPADTEDGMSSCPQPWFVVIKEHQDLKNGGQPVAGEDGQAADGSMQPTSWRQEPQLCGMGTEQGCWIPVSSDKGSCPQVMERSFHMPSYGTQTLEGGVEKPHSLLSANPLWQQRALDPPHQMELTQ
modifications: Pro-epidermal growth factor
notes: EGF (Epidermal growth factor), dissolved in saline (0.5 mg/5 ml)
healing of lesions in the corneal epithelium (0 hours after scarification): +
healing of lesions in the corneal epithelium (8 hours after scarification): +
healing of lesions in the corneal epithelium (16 hours after scarification): +
animals healed (24 hours after scarification): 4/5
healing of lesions in the corneal epithelium (24 hours after scarification): - and +
healing of lesions in the corneal epithelium (48 hours after scarification): -
